{"source": "paper PMC3901155", "substrate": "Nc1ncnc2c1ncn2[C@@H]1O[C@H](COP(=O)(O)O)[C@@H](OP(=O)(O)O)[C@H]1O", "assay": "purified protein", "format": "biochemical, Rattus norvegicus", "details": "5 mM p-nitrophenyl sulfate, pH 7.0, 37 °C"}
{"protein": "AST-IV (Rattus norvegicus) (protein) MEFSRPPLVHVKGIPLIKYFAETIGPLQNFTAWPDDLLISTYPKSGTTWMSEILDMIYQGGKLEKCGRAPIYARVPFLEFKCPGVPSGLETLEETPAPRLLKTHLPLSLLPQSLLDQKVKVIYIARNAKDVVVSYYNFYNMAKLHPDPGTWDSFLENFMDGEVSYGSWYQHVKEWWELRHTHPVLYLFYEDIKENPKREIKKILEFLGRSLPEETVDSIVHHTSFKKMKENCMTNYTTIPTEIMDHNVSPFMRKGTTGDWKNTFTVAQNERFDAHYAKTMTDCDFKFRCEL", "values": [{"measurement": "Km", "result": 25.3, "unit": "µM"}]}
